# Data published in US20220242936A1 (CHANGCHUN GENESCIENCE PHARMACEUTICAL, published 2022).
# Where no end group is shown, it is not given here.
# T1: biotinylated Aβ1-16 polypeptide (also: biotinylated (site not given here))
# T1 construct: also called Aβ1-16 (N-terminal peptide fragment)
# T1 peptide: DAEFRHDSGYEVHHQK
# Experiments:
# Aβ1-42 polypeptide [1] = molecular target: T2, Aβ1-42 polypeptide (human); experiment: ELISA EC50 on Aβ42 monomer, 2 ml transient transfection; table note: '-' means no combination; expression 3.96 mg/L
# T2 construct: Synthetic peptide; also called Aβ1-42 monomer; Aβ monomer
# T2 sequence (peptide, as listed by the source): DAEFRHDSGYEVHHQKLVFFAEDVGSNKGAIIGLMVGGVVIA
# Aβ1-42 polypeptide [2] = molecular target: T2, Aβ1-42 polypeptide; experiment: ELISA EC50 on Aβ42 monomer, 2 ml transient transfection; table note: '-' means no combination; expression 3.12 mg/L
# [3] = molecular target: T3, biotinylated Aβ1-42 polypeptide (human, biotinylated (site not stated)); experiment: ELISA, hybridoma supernatant on biotinylated peptide captured by streptavidin
# T3 construct: also called Full length Aβ1-42
# T3 sequence (peptide, as listed by the source): as above
# Experimental: (§1) Detection: After stopping the reaction, the microtiter plate was immediately placed into a microplate reader, the OD value was measured at 450 nm, and the original data was stored.
# (§2) Data processing: The raw data were input into the software SoftMax Pro 6.2.1 for data processing.
# [4] = molecular target: T1, biotinylated Aβ1-16 polypeptide; experiment: as above
# Experimental: as §1, §2
# [5] = molecular target: T4, biotinylated Aβ14-29 polypeptide (biotinylated (site not stated)); experiment: as above
# T4 construct: also called Aβ14-29 (middle peptide fragment)
# Experimental: as §1, §2
# [6] = molecular target: T1, biotinylated Aβ1-16 polypeptide; experiment: ELISA, biotinylated peptide on streptavidin plate
# Experimental: as §1, §2
# [7] = molecular target: T4, biotinylated Aβ14-29 polypeptide; experiment: ELISA, biotinylated peptide on streptavidin plate
# Experimental: as §1, §2
# Aβ1-42 polypeptide [8] = molecular target: T2, Aβ1-42 polypeptide; experiment: cell-based or functional assay
# Aβ1-42 polypeptide [9] = molecular target: T2, Aβ1-42 polypeptide; experiment: SPR, Biacore T200, antibody captured on Protein A chip, human Aβ antigen as analyte
# Experimental: Biacore-T200 detection was performed, ProteinA chip was used to capture candidate antibodies or positive antibodies, different concentrations of human Aβ antigen were used to flow through the chip, and the fitting analysis was performed based on the collected data. […] The detection conditions were: capture time: 30 s; antigen binding time: 120 s; dissociation time: 900 s; flow rate: 30 μl/min. And the regeneration conditions were: 20 mM NaOH solution, flow rate: 30 μl/min.
# Aβ1-42 polypeptide [10] = molecular target: T2, Aβ1-42 polypeptide; experiment: ELISA EC50 on Aβ42 monomer, 2 ml transient transfection; table note: '-' means no combination; expression 5.42 mg/L
# Aβ1-42 polypeptide [11] = molecular target: T2, Aβ1-42 polypeptide; experiment: ELISA EC50 on Aβ42 monomer, 2 ml transient transfection; table note: '-' means no combination; expression 3.68 mg/L
# Aβ1-42 polypeptide [12] = molecular target: T2, Aβ1-42 polypeptide; experiment: ELISA EC50 on Aβ42 monomer, 2 ml transient transfection; table note: '-' means no combination; expression 3.88 mg/L
Binder,"relative fluorescence intensity (ThT, Aβ polymerization; hIgG = 1.00) (Aβ1-42 polypeptide [8])",relative value of LDH release (SHSY5Y cells with Aβ; hIgG = 1.00) (Aβ1-42 polypeptide [8]),Kd (Aβ1-42 polypeptide [9]) [nM],koff (Aβ1-42 polypeptide [9]) [s⁻¹],kon (Aβ1-42 polypeptide [9]) [M⁻¹ s⁻¹],further results
"066-4.26.14H4L4 (antibody, human IgG1, V domains shown, Humanized full-length antibody; human IgG1 heavy constant and human kappa light constant (vectors pGS003-hIgG1CH, pGS003-hIgKCL)) VH: EVQLVESGGGLVQPGGSLRLSCAASGFTFRSYAMSWVRQAPGKGLEWVASISTTSNTYYPDSVKGRFTTSRDNAKNSVYLQMSSLRDEDTAMYYCGRGVITNQAWFAYWGQGILVTVSS VL: EIVLTQSPGTLSLSPGERATLSCRASQSISNNLHWYQQKPGQAPRLLIKYASQSISGIPDRFSGSGSGTDFTLTISRLEPEDFAVYYCQQSNSWPLTFGGGTKVEIKR",–,–,–,–,–,binding result (Aβ1-42 polypeptide [1]): no binding
"066-4.26.14H5L4 (antibody, human IgG1, V domains shown, Humanized full-length antibody; human IgG1 heavy constant and human kappa light constant (vectors pGS003-hIgG1CH, pGS003-hIgKCL)) VH: EVQLVESGGGLVQPGGSLRLSCVASGFTFRSYAMSWVRQAPGKGLEWVASISTTSNTYYPDSVKGRFTTSRDNSKNTVYLQMSSLRAEDTAVYYCGRGVITNQAWFAYWGQGTLVTVSS VL: EIVLTQSPGTLSLSPGERATLSCRASQSISNNLHWYQQKPGQAPRLLIKYASQSISGIPDRFSGSGSGTDFTLTISRLEPEDFAVYYCQQSNSWPLTFGGGTKVEIKR",–,–,–,–,–,binding result (Aβ1-42 polypeptide [2]): no binding
"066-7.17.2 (antibody, V domains shown) VH: EVQLVESGGGLVKPGGSLKLSCAASGFTFSSYGMHWVRQAPEKGLEWVAMIWYDGTKKYYSDSVKGRFTISRDNAKNTLFLQMTSLRSEDTAMYYCARDRGIGTRHGPYFMDVWGQGTSVTVSS VL: DIQMNQSPSSLSASLGDTITITCHARHNVRSYLNWYQQKPGNIPKLLIYAASSQQRGVPSRFSGSGSGTGFTLTISSLQPEDIATYYCLQSFGTPLTFGGGTKLEIK",–,–,–,–,–,OD value at 450 nm [3]: 1.08 OD; OD value at 450 nm [4]: 0.92 OD; OD value at 450 nm [5]: 0.0612 OD
"066-4.26.14 (antibody, V domains shown, Murine hybridoma antibody) VH: EVKLVESGGGLVKPGGSLKLSCAASGFTFRSYAMSWVRQTPEKRLEWVASISTTSNTYYPDSVKGRFTTSRDNARNIVYLQMSSLRSDDTAMYYCGRGVITNQAWFAYWGQGTLVTVSA VL: DIVLTQSPATLSVTPGDSVSLSCRASQSISNNLHWYQQKSHESPRLLIKYASQSISGIPSRFSGSGSGTDFTLSVNNVGTEDFGMYFCQQSNSWPLTFGAGTKLELK",0.7 relative to hIgG,1.2 relative to hIgG,–,–,–,"binding result [6]: no binding; binding result [7]: no binding; OD value at 450 nm [3]: 1.93 OD; OD value at 450 nm [4]: 0.0602 OD; OD value at 450 nm [5]: 0.0674 OD; relative fluorescence intensity (ThT, Aβ polymerization; PBS group = 1.0) (Aβ1-42 polypeptide [8]): 0.46 relative to PBS group; relative value of LDH release (SHSY5Y cells with Aβ; Vehicle group = 1.0) (Aβ1-42 polypeptide [8]): 1.2 relative to Vehicle group"
"066-4.26.14 mouse-human chimeric antibody (antibody, human IgG1, V domains shown) VH: EVKLVESGGGLVKPGGSLKLSCAASGFTFRSYAMSWVRQTPEKRLEWVASISTTSNTYYPDSVKGRFTTSRDNARNIVYLQMSSLRSDDTAMYYCGRGVITNQAWFAYWGQGTLVTVSA VL: DIVLTQSPATLSVTPGDSVSLSCRASQSISNNLHWYQQKSHESPRLLIKYASQSISGIPSRFSGSGSGTDFTLSVNNVGTEDFGMYFCQQSNSWPLTFGAGTKLELKR",0.71 relative to hIgG,1.32 relative to hIgG,12.6,0.000333,26500,–
"066-4.26.14H4L2 (antibody, human IgG1, V domains shown, Humanized full-length antibody; human IgG1 heavy constant and human kappa light constant (vectors pGS003-hIgG1CH, pGS003-hIgKCL)) VH: EVQLVESGGGLVQPGGSLRLSCAASGFTFRSYAMSWVRQAPGKGLEWVASISTTSNTYYPDSVKGRFTTSRDNAKNSVYLQMSSLRDEDTAMYYCGRGVITNQAWFAYWGQGILVTVSS VL: DIVLTQSPATLSVSPGERATLSCRASQSISNNLHWYQQKPGQAPRLLIKYASQSISGIPARFSGSGSGTDFTLTISSLQSEDFAVYFCQQSNSWPLTFGGGTKVEIKR",0.7 relative to hIgG,1.3 relative to hIgG,36.3,0.000463,12800,–
"066-4.26.14H5L2 (antibody, human IgG1, V domains shown, Humanized full-length antibody; human IgG1 heavy constant and human kappa light constant (vectors pGS003-hIgG1CH, pGS003-hIgKCL)) VH: EVQLVESGGGLVQPGGSLRLSCVASGFTFRSYAMSWVRQAPGKGLEWVASISTTSNTYYPDSVKGRFTTSRDNSKNTVYLQMSSLRAEDTAVYYCGRGVITNQAWFAYWGQGTLVTVSS VL: DIVLTQSPATLSVSPGERATLSCRASQSISNNLHWYQQKPGQAPRLLIKYASQSISGIPARFSGSGSGTDFTLTISSLQSEDFAVYFCQQSNSWPLTFGGGTKVEIKR",0.67 relative to hIgG,1.26 relative to hIgG,20.8,0.000278,13400,–
"066-4.26.14H2L2 (antibody, human IgG1, V domains shown, Humanized full-length antibody; human IgG1 heavy constant and human kappa light constant (vectors pGS003-hIgG1CH, pGS003-hIgKCL)) VH: EVQLVESGGGLVKPGGSLRLSCAASGFTFRSYAMSWVRQTPEKRLEWVASISTTSNTYYPDSVKGRFTTSRDNAKNSVYLQMSSLRAEDTAVYYCGRGVITNQAWFAYWGQGTTVTVSS VL: DIVLTQSPATLSVSPGERATLSCRASQSISNNLHWYQQKPGQAPRLLIKYASQSISGIPARFSGSGSGTDFTLTISSLQSEDFAVYFCQQSNSWPLTFGGGTKVEIKR",0.62 relative to hIgG,1.41 relative to hIgG,22.5,0.000433,19200,–
"066-4.26.14H2L3 (antibody, human IgG1, V domains shown, Humanized full-length antibody; human IgG1 heavy constant and human kappa light constant (vectors pGS003-hIgG1CH, pGS003-hIgKCL)) VH: EVQLVESGGGLVKPGGSLRLSCAASGFTFRSYAMSWVRQTPEKRLEWVASISTTSNTYYPDSVKGRFTTSRDNAKNSVYLQMSSLRAEDTAVYYCGRGVITNQAWFAYWGQGTTVTVSS VL: DIVLTQSPDFQSVTPKEKVTISCRASQSISNNLHWYQQKPDQSPKLLIKYASQSISGIPSRFSGSGSGTDFTLTINSLEAEDAAAYFCQQSNSWPLTFGPGTKVEIKR",0.67 relative to hIgG,1.42 relative to hIgG,25.8,0.000472,18300,–
"066-4.26.14H5L3 (antibody, human IgG1, V domains shown, Humanized full-length antibody; human IgG1 heavy constant and human kappa light constant (vectors pGS003-hIgG1CH, pGS003-hIgKCL)) VH: EVQLVESGGGLVQPGGSLRLSCVASGFTFRSYAMSWVRQAPGKGLEWVASISTTSNTYYPDSVKGRFTTSRDNSKNTVYLQMSSLRAEDTAVYYCGRGVITNQAWFAYWGQGTLVTVSS VL: DIVLTQSPDFQSVTPKEKVTISCRASQSISNNLHWYQQKPDQSPKLLIKYASQSISGIPSRFSGSGSGTDFTLTINSLEAEDAAAYFCQQSNSWPLTFGPGTKVEIKR",0.78 relative to hIgG,1.41 relative to hIgG,32.5,0.00046,14200,–
"066-4.26.14H5L1 (antibody, human IgG1, V domains shown, Humanized full-length antibody; human IgG1 heavy constant and human kappa light constant (vectors pGS003-hIgG1CH, pGS003-hIgKCL)) VH: EVQLVESGGGLVQPGGSLRLSCVASGFTFRSYAMSWVRQAPGKGLEWVASISTTSNTYYPDSVKGRFTTSRDNSKNTVYLQMSSLRAEDTAVYYCGRGVITNQAWFAYWGQGTLVTVSS VL: DIVLTQSPATLSVSPGERVTLSCRASQSISNNLHWYQQKSGQAPRLLIKYASQSISGIPSRFSGSGSGTDFTLTISSLQSEDFAVYFCQQSNSWPLTFGGGTQVEIKR",0.68 relative to hIgG,1.37 relative to hIgG,24.8,0.000469,18900,–
"066-4.26.14H3L1 (antibody, human IgG1, kappa, V domains shown, Humanized full-length antibody; human IgG1 heavy constant and human kappa light constant (vectors pGS003-hIgG1CH, pGS003-hIgKCL)) VH: EVQLVQSGAEVKKPGESLKISCKGSGYSFRSYAMSWVRQMPGKGLEWVASISTTSNTYYPDSVKGRVTTSRDKSISTAYLQWSSLKASDTAMYYCGRGVITNQAWFAYWGQGTLVTVSS VL: DIVLTQSPATLSVSPGERVTLSCRASQSISNNLHWYQQKSGQAPRLLIKYASQSISGIPSRFSGSGSGTDFTLTISSLQSEDFAVYFCQQSNSWPLTFGGGTQVEIKR",–,–,–,–,–,binding result (Aβ1-42 polypeptide [10]): no binding
"066-4.26.14H3L5 (antibody, human IgG1, kappa, V domains shown, Humanized full-length antibody; human IgG1 heavy constant and human kappa light constant (vectors pGS003-hIgG1CH, pGS003-hIgKCL)) VH: EVQLVQSGAEVKKPGESLKISCKGSGYSFRSYAMSWVRQMPGKGLEWVASISTTSNTYYPDSVKGRVTTSRDKSISTAYLQWSSLKASDTAMYYCGRGVITNQAWFAYWGQGTLVTVSS VL: EIVLTQSPDFQSVTPKEKVTITCRASQSISNNLHWYQQKPDQSPKLLIKYASQSISGVPSRFSGSGSGTDFTLTINSLEAEDAATYYCQQSNSWPLTFGQGTKVEIKR",–,–,–,–,–,binding result (Aβ1-42 polypeptide [11]): no binding
"066-4.26.14H3L4 (antibody, human IgG1, kappa, V domains shown, Humanized full-length antibody; human IgG1 heavy constant and human kappa light constant (vectors pGS003-hIgG1CH, pGS003-hIgKCL)) VH: EVQLVQSGAEVKKPGESLKISCKGSGYSFRSYAMSWVRQMPGKGLEWVASISTTSNTYYPDSVKGRVTTSRDKSISTAYLQWSSLKASDTAMYYCGRGVITNQAWFAYWGQGTLVTVSS VL: EIVLTQSPGTLSLSPGERATLSCRASQSISNNLHWYQQKPGQAPRLLIKYASQSISGIPDRFSGSGSGTDFTLTISRLEPEDFAVYYCQQSNSWPLTFGGGTKVEIKR",–,–,–,–,–,binding result (Aβ1-42 polypeptide [12]): no binding
